Where “and” joins values, the source holds several entries; their conditions need not be identical. Identical values can stand only once. Like-named read-outs stand apart in the source and are kept apart here. Ends that are not written are not given here.
Legend:
[1] = molecular target: T1, Recombinant human PD-1 protein (Homo sapiens, UniProt Q15116); assay: SPR binding of peptides or PD-L1 to immobilized PD-1 (Biacore X100)
T1 construct: purchased Abcam (Cambridge, UK)
Procedure: Peptides of lyophilized powder were dissolved in sterile milli-Q H2O to a stock concentration of 1 mM for use in surface plasmon resonance (SPR) analysis. […] All synthetic peptides and proteins were equally packaged to avoid repeated freeze–thaw cycles.
The HBS-EP buffer (10×) was diluted 10-fold with sterile deionized water, filtered through a 0.22-μm membrane filter, and degassed immediately before the experiment as running buffer with a flow rate of 30 μL/min for the instrument system. The purified active PD-1 was diluted by 10 mM sodium acetate solution at pH 4.5, resulting in a protein concentration of 50 μg/mL. Coupling conditions were determined by protein isoelectric points and previous reports. The diluted protein was immobilized on the surface of a CM5 sensor chip via the primary amine group, employing a standard Amine Coupling Kit, and the target immobilization level was 5000 response units (RUs). The flow cell 1 […] any modification was used as a reference to correct the system error. The RU values were collected, and all the binding affinity data was calculated by kinetic models (1:1 interaction) within Biacore X100 Evaluation Software.
Each concentration was injected into the channel for 120 and 150 s for dissociation. Then, 10 mM glycine 3.0 or glycine 2.5 was utilized to regenerate the sensor chip surface. The equilibrium dissociation constant (KD) was calculated to evaluate the ability of peptides to interact with PD-1.

[2] = molecular target: T2, Recombinant human PD-1 protein (programmed cell death protein 1) (human, UniProt Q15116 25-170); assay: SPR; Biacore X100, 25 °C; PD-1 immobilised on a CM5 chip by amine coupling (target 5000 RU); peptides as analytes in HBS-EP (2–64 μM WANG-003, 1–16 μM WANG-004, 1.5625–100 μM WANG-005, 62.5–1000 μM WANG006, 3.125–100 μM WANG007), 120 s injection and 150 s dissociation; 30 μL/min; 1:1 kinetic model; details: both partners purified
T2 construct: Programmed cell death protein 1 (PD-1), human, recombinant, bought from Abcam; the results call the immobilised protein an ectodomain; No catalogue number, limits or tags are printed; The UniProt ID Q15116 is printed for the docking model, not for the bought protein; also called CD279; purified active PD-1; source: bought: Abcam
T2 sequence (Q15116 25-170): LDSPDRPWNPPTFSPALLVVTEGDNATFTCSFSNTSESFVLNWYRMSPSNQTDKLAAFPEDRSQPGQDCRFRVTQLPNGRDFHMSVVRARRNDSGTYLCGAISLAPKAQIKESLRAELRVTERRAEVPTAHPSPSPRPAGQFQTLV

[3] = molecular target: T3, Recombinant human PD-1 protein (programmed cell death protein 1) (human, UniProt Q15116 25-170); assay: SPR; Biacore X100, 25 °C; PD-1 amine-coupled to a CM5 chip (target 5000 RU); peptide as analyte in HBS-EP buffer pH 7.4 (2-64 μM WANG-003, 1-16 μM WANG-004, 1.5625-100 μM WANG-005), 30 μL/min, 120 s injection, 150 s dissociation; regeneration 10 mM glycine 3.0 or 2.5; 1:1 kinetic model; three single runs; details: both partners purified
T3 construct: programmed cell death protein 1 (PD-1), human, recombinant, bought from Abcam; the results speak of the immobilised ectodomain; also called hPD-1; CD279; source: bought: Abcam
T3 sequence (Q15116 25-170): as above

T1 sequence (Q15116 25-170 limits assumed): as the sequence (Q15116 25-170) above

Molecule	binding affinity to PD-1 (in words) [1]	kon [3]	further results
FRWWR-NH2 (C-terminus assumed) [WANG-004, FRWWR-NH2]	moderate affinity	–	binding affinity to PD-1 (in words) ([1]; listed as FRWWR-NH2): moderate binding affinity
KRWWR-NH2 (C-terminus assumed) [WANG-003, KRWWR-NH2]	moderate affinity	–	–
RRWQWR-NH2 [WANG-005, RRWQWR-NH2]	moderate affinity	–	–
YVAE-NH2 [WANG-007]	did not show binding affinities	–	–
YVAM-NH2 [WANG-006]	did not show binding affinities	–	–
KRWWR-NH2 (in-house synthetic peptide; also called KRWWR-NH2; KRWWR; source: synthetic peptide (solid phase, HPLC purified)) [WANG-003]	–	–	Kd [2]: 3350 ± 1030 nM
FRWWR-NH2 (in-house synthetic peptide; also called FRWWR-NH2; FRWWR; source: synthetic peptide (solid phase, HPLC purified)) [WANG-004]	–	–	Kd [2]: 1630 ± 309 nM
RRWQWR-NH2 [WANG-005 (RRWQWR-NH2)]	–	658 M⁻¹ s⁻¹ and 436 M⁻¹ s⁻¹ and 494 M⁻¹ s⁻¹	–
KRWWR-NH2 (in-house synthetic peptide; source: synthetic peptide) [WANG-003 (KRWWR-NH2)]	–	1230 M⁻¹ s⁻¹ and 967 M⁻¹ s⁻¹ and 1090 M⁻¹ s⁻¹	Kd [3]: 2100 nM and 4610 nM and 3350 nM; koff [3]: 0.00258 s⁻¹ and 0.00446 s⁻¹ and 0.00365 s⁻¹
FRWWR-NH2 (in-house synthetic peptide; source: synthetic peptide) [WANG-004 (FRWWR-NH2)]	–	2770 M⁻¹ s⁻¹ and 2120 M⁻¹ s⁻¹ and 2760 M⁻¹ s⁻¹	Kd [3]: 1380 nM and 2070 nM and 1450 nM; koff [3]: 0.00383 s⁻¹ and 0.00438 s⁻¹ and 0.00401 s⁻¹

— article PMC6833008 (Molecules, 2019)
